The DeepSol protein solubility set

Assay: soluble on expression in E. coli; label from the status in PepcDB or PDB records

Sequence | soluble on expression in E. coli
SLTASIVYLNNVRLETGFAKDHHELTYTKTARYTLAIQEGKIQAIIPQNQVTEKQQGTDLNGQLAIPAFQESHNHLDKTYLSLGWRASQPVKNLKERLADEASELKLLAPSTEQRATAMIEKLIGYGASYIRTHVNIDPYVELENFWGVKRALEKYAHVIDYDIVVFPQHGLLKNPQTVLLMREALKNGGTMVGGLDPAGIDYAIEESLETIFDLAEEFQVGIDIHLHDTGEVGVYTIDKFLDILEERKFTQRTAISHAFALLDVRPAEKEKLYQRLATHQTAIMSTIPYDPRYLLPPIDVLRQAGVSVHLGSDGFFDSWSSNVSGDLFEKLRNFCEMTGKITEEQLTQAYVHGCGKVAPFSFEEERLWFTEGDEANFIFTEAASTAEVIARKPQKRQIMLKGQWV | soluble
MSLRRSKATDHQAAGPSPGPRDAFRPASVDEDVPAAVGRLLDRFLAERVARAAALDPVFAHDIAERVARFTLDGGKRTRSQFVWWAHRACGGPAAGAEAALRVGAALELIQTCALVHDDVMDGSRLRRGRPALHTDVSAQYADAVLPAPGTRFGEAAAILAGDLALAWADDVVADTDLAPDPGRRVREVWSCLRMEMVAGQYLDIQGQATSSHSEARAMRAACLKSALYSVQRPLELGAALAGADTATTQALCSAGRCVGLAFQLRDDLHDVFEEPRRTGKPSGGDIRAGKPTYLVAVARARAEAAGDRGALAVLRRSLGCADLSDADLARVRDVLVTTGARDTVEAEIDRLVAQGLRHMGAASLAPEGRRHLDALLRSAAGAPSVRRQAPDASRSENGMPVSLLLTATAEGAPEKGIITITTDPNSSSVDKLAAALEHHHHHH | soluble
MGSDKIHHHHHHMWFSLTYAIIMHSLTTTRKMLQRLDVYLTSFEWGNFSKSKLSILQAFLKIATKDGYDAVSMRSLAKAVDLKPPTMYSHFPAGKDQIVSSAFRWHYYSFAMAVKEGLSQSETLEEYWSALIRVHIIQQIKHPENDLFDMLMATDRLGSILPTDLRSEMIEWLSFCDFMYESIATDLGIDDAKQKSKIIRVTLDGANSWWKWDDSQENLEECIRYAERIAAGILKI | not soluble
MSLGTMSTEATLLERCQSQCELCAASTPLSPFVVAPHALVTVDHAVMLCDTCKGQIENPETVDMNHWRCLNDSMWSQVQPVQVLAWRQLKRISETEGWARDLLDMMYLDEETAKWAEIGMDDDAEKPRDVNGVELKKGDDVTVIKDLPVKGSSMVIKQGTAVRGIALTEDPKHIQGKVNGQTMYIIAEYCRKKEGGSHHHHHH | soluble
SANLPTVLVTGASGRTGQIVYKKLKEGSDKFVAKGLVRSAQGKEKIGGEADVFIGDITDADSINPAFQGIDALVILTSAVPKMKPGFDPTKGGRPEFIFEDGQYPEQVDWIGQKNQIDAAKVAGVKHIVVVGSMGGTNPDHPLNKLGNGNILVWKRKAEQYLADSGTPYTIIRAGGLLDKEGGVRELLVGKDDELLQTDTKTVPRADVAEVCIQALLFEEAKNKAFDLGSKPEGTSTPTKDFKALFSQVTSRF | soluble
MGSDKIHHHHHHMAGANNPVITIKRGLDIPIAGEPLQQIDDAPKTTQVALIGEEYVGLKPTMSVEVGDHVVKGQVLFEDKKTPGVLFTAPASGVVCAINRGERRVLQSVVIDCDATQEPAIILESVDIHALSHQAVKDGLVRSGLWTALRTRPFSRVPQLDAAPAGIFVTAIDTNPLAPDPRVIIATQPQAFQAGLFALTFLTTEKVYLCQDDGASLLADASSEYDLSKVSVQRFNGVHPAGLVGTHIHFLLPASIERQVWHVGYQDVIAFGKLFLTGELYTDRIVALGGPNVLKPRLVRTQLGAKLSEWVNGEIDQRQSRIVSGSLLSGHTAADVYDFLGRFHNQISVLTENERQELLPWVRHDSSKFSLTGIMMSGFSRTKKLFDFTTNAGGSPRAMMAFGQLARVMPLDILPILLVRDLVVRDTDEAQLLGALELDEEDLALCTFVCPGKYDFGKELRACLDIIEREG | not soluble
MIEVKPETPDDWWEVEALYDLCFAPGRTALSSYRLRDDVPPVAGLSLVARDSDGTLAGAIRFWPVHVGDLDALLLGPVAVHPTHQGEGLGGFLIQEGLEAGREGGWARVMLVGDAPYYSRFGFARLEGVEMPPPTNPDRVLGLEL | not soluble
MYVQGKIGLDQLAEAERLHATLCREVQQRLDIRLRAHRAVLDELNERLADKLFCNFSVFQSIPDAWAIDQIFPVMPLQRLGEEPTRRAVIQDMTCDSDGRINAYIDRQSIENTLRMHAPAPGEPYLIGFFLVGAYQEILGDMHNLFGDTHSVDVELDGAGGYTFTHTRRGDGADDLLRYVHIDPDELERLEHHHHHH | not soluble
MGSDKIHHHHHHMTDWHFYEPARGHALRHDPLNAIVAPRPIGWISTISSDGVRNLAPYSFFNLFSYKPPIVGFCSLGAKDSLANARDTGEFVWNLATRPLVEAMNASAAMVPAHVDEFELAKLETLPSAKVRPARVAASPVQFECVVTQIVQLEAQGGAALPAWLVLGEAVAIHIDRQLITNGVYQTAQARPILRGGGPADYFEIGAGQLFTLERPGD | not soluble
MMEKPEGLKLIDENGRRIDGRKKYELRPIKMKVGVLKNANGSAYIEWGRNKIIAAVYGPRELHSKHLQRPDRAILRVRYNMAPFSVEERKKPGPDRRSIEISKVIKGALEPALILEMFPRTSIDVFIEVLQADAGTRVAGITAASLALADAGIPMRDLVAACAAGKIEGEIVLDLNKEEDNYGEADVPVAIMPLKNDITLLQMDGYLTKEEFIEAVRLAIKGAKAVYQKQREALKEKYLKIAQEVEESE | soluble
MRAPLSTYRRPQRTDFVTPTGGPFFAKQDKALNTIDLKMAHDLKLRGYRVKVAVVDEGVRSDHPLLNVEKKYGGDYMADGTRTYPDPKRQGRHGTSVALVLAGQDTDTYRGGVAPNADLYSANIGTRAGHVSDEAAFHAWNDLLGHGIKIFNNSFATEGPEGEQRVKEDRNEYHSAANKQNTYIGRLDRLVRDGALLIFAAGNGRPSGRAYSEVGSVGRTPRVEPHLQRGLIVVTAVDENGRLETWANRCGQAQQWCLAAPSTAYLPGLDKDNPDSIHVEQGTSLSAPLVTGAAVLVQDRFRWMDNDNLRTTLLTTAQDKGPYGVDPQYGWGVLDVGRAVQGPAQFAFGDFVARVTDTSTFGLEHHHHHH | not soluble
MDLSMTTPEEITQYLQDHPEFFEEHPDLLESLRFPHPYEGRVISINERQVAMLREKNKLLQNRLQELIDVGENNDAISEKMHRLTVALLGFGSLPELLHELQYHLCEDFSIPHVVLRLWQIDEFGTEADLPSPEFDPISNNVRILAQGMLRPYCGPEVDDEIRQWFAQDAEYLKSFAVIPLKKQSNFGLLVMASPEAERFYPDMGTLYLERLGDMVSSSIMRLIQQTPGAANRESAS | not soluble
SLKGLKAYRLDVPPMLADRGIDRMLAFAVPLTVRFRGIKVREGTLLHGPEGWGEWSPFWDYDPVESASWLRAGIEGATRRLPVARRDRVPINVTIPVVDADRAGRMAAESACLTAKVKVADPRSDLREDCRRVAAVREAMPDGHIRVDANTAWDVDAAVRAITELDAAAEGLEYVEQPCASVAELAQVRRKVNVPVAADESVRRAEDPLAVARAGAADLLIVKAQPLGGVARALEVIDATGLPAVVSSALDTSIGIGLATYLAAALPSLDHACGLGTIRLFQGDVSASPLLPVDGYLRPRRGEVDVEVEESDTDLCPRWSQRLALTVAALVERERS | not soluble
MGSDKIHHHHHHMNEADVTKFVNNARKTLTDAQLLCSSANLRIVDIKKKLSSWQLSISKLNFLIVGLRQQGKFLYTILKEGIGTKLIQKQWNQAVLVVLVDEMKYWQYEITSKVQRLDGIVNELSISEKDDTDPSKLGDYISRDNVNLLNDKLKEVPVIERQIENIKLQYENMVRKVNKELIDTKLTDVTQKFQSKFGIDNLMETNVAEQFSRELTDLEKDLAEIMNSLTQHFDKTLLLQDKKIDNDEREELFKVVQGDDKELYNIFKTLHEVIDDVDKTILNLGQFLQAKIKEKTELHSEVSEIINDFNRNLEYLLIFKDISNLIDSFKNSCTQDIQTTKELCEFYDNFEESYGNLVLEAKRRKDVANRMKTILKDCEKQLQNLDAQDQEERQNFIAENGTYLPETIWPGKIDDFSSLYTLNYNVKNP | not soluble
MGSDKIHHHHHHMASIKAINNSAHGNVKVKSNPSFIQSKTKHFAPVVVQEFISASKEFPIVFIKDAETGRFNAVVLLGLKPQENLFFDEKSWQGSYIPEALTLYPFVIHQAEGSDKALLCVDEDSALVNETIGDAFFDEKGVQKEWLTAKGEAVVDYVNKSGVTQNFIQLLLAKELLAPQTLSLNLAGQEEYTLDGLYVINEQKLNDLSDSEFSELRKTNALPAIYAILMSMQCIKKLIDRQSSK | not soluble
